Laboratory results published in patent US20130252821A1, “METHODS AND COMPOSITIONS FOR THE TREATMENT AND DIAGNOSIS OF DISEASES CHARACTERIZED BY VASCULAR LEAK, HYPOTENSION, OR A PROCOAGULANT STATE” (Beth Israel Deaconess Medical Center, Inc., priority 2005, published 2013).

How the values were obtained:
HMVEC monolayers = assay: Immunofluorescence of endothelial architecture (F-actin, VE-cadherin); format: cell-based, human; conditions: for reversal of Ang-2 induced thick actin stress fibers and paracellular gaps: Ang-2 100 ng/ml, inhibitor 10 μM, 5 hours
Method: HMVEC were grown to confluence on glass coverslips coated with 1% gelatin. The cells were fixed for 10 minutes in 4% paraformaldehyde in PBS, incubated for 5 min in 0.5% Triton X-100 in PBS. After blocking, the monolayers were processed for staining with anti-VE-cadherin monoclonal antibody (BD Pharmingen, San Diego, Calif.) and Alexa Fluoro 488 goat anti-mouse IgG, rhodamine phalloidin (Molecular Probe, Eugene, Oreg.) for F-actin staining and TOPRO-3-iodine (Molecular Probe) for nuclear staining. Fluorescence images were obtained using a Bio Rad MRC confocal fluorescence microscope. For human subject serum experiments, serum was diluted to 10% with EBM-2 and filtered with low protein binding PVDF membrane (0.22 μm, Millipore Corp) prior to application on endothelial cell monolayers.

[1] = tested on: myosin light chain (MLC) phosphorylation in HMVECs; assay: MLC phosphorylation assay (Western blot); format: cell-based, human; conditions: for effect on Ang-2-induced phosphorylation of MLC: inhibitor 10 μM
Method: After signal starvation with 0.25% FBS EBM-2 for 24 h, cells were treated with 100 ng/ml Ang-2 or vehicle for 0, 1, 3, and 6 hours. Phosphorylated myosin light chain (MLC-p) (phospho-serine 19) and GAPDH were detected by Western blot analysis. For human subject serum effects on HMVECs, serum was diluted to 5% with EBM-2 and filtered with low protein binding PVDF membrane (0.22 μm, Millipore Corp, Bedford, Mass.). Anti-MLC-phospho-serine-19 Ab was obtained from Abcam Inc.

healthy adult mice [2] = assay: Evans blue permeability assay after systemic Ang-2; format: in vivo, mouse; conditions: Ang-2 10 μg i.p., 16 hours
Method: Mice were injected with 10 μg of Ang-2 or vehicle intraperitoneal (i.p.) and, after 16 hours, were anesthetized with Avertin (2,2,2-tribromoethanol). 2% Evans blue (50 μl) was then injected into the retro-orbital sinus. (In preliminary experiments with control mice, n=6, we confirmed that the retro-orbital sinus provided a route of intravascular injection that allowed near-100% delivery of Evans blue in a reproducible fashion.) 10 minutes after Evans blue injection, mice were sacrificed and perfused with PBS for 10 minutes through a cannula placed in the right ventricle. Blood and PBS were vented through an incision in the vena cava. […] Washout of intravascular contents was also confirmed histologically after 10 minutes PBS perfusion. After homogenization in 1.5 ml formamide, Evans blue was extracted by incubating the samples at 70° C. for 24 hours, and the concentration of Evans blue was estimated by dual-wavelength spectroscopy to correct for heme E620 nm (corrected)=E620 nm−(1.426*E740 nm+0.030).

healthy adult mice [3] = assay: Lung wet-to-dry weight ratio; format: in vivo, mouse; conditions: Ang-2 treatment for 16 hours
Method: Lung wet weight (W) was determined immediately after removal of the right lung. Lung dry weight (D) was determined after the lung had been dried in an oven at 50° C. for 24 hours. The W/D ratio was calculated by dividing the wet weight by the dry weight.

HMVEC monolayer = assay: FITC-albumin permeability assay; format: cell-based, human; conditions: Ang-2 400 ng/ml, 8 hours
Method: HMVEC monolayer permeability was determined with the use of FITC-labeled bovine serum albumin (Sigma) as described elsewhere (Tinsley et al., Am. J. Physiol Cell Physiol. 279: C1285-1289 (2000)). Coster Transwell membranes (Corning Inc. Corning, N.Y.) were coated with fibronectin and cells were grown until confluence. Vehicle or Ang-2 (400 ng/ml) with FITC-albumin (final 1 mg/ml) was added to the luminal chamber for 8 hours, and samples were taken from both the luminal and abluminal chamber for fluorometry analysis. The readings were converted with the use of a standard curve to albumin concentration. These concentrations were then used in the following equation to determine the permeability coefficient of albumin (Pa).
where [A] is abluminal concentration; t is time in seconds; A is area of membrane in cm2; V is volume of abluminal chamber; and [L] is luminal concentration. siRNA transfection of endothelial cells: HMVECs were seeded on 10 cm dishes for Western blot (or on 1% gelatin-coated coverslips for immunohistochemistry experiments) 24 hour before experiments. […] of validated, annealed small interfering RNA (siRNA) (Ambion, Inc. Austin Tex.) directed to human Tie-2 was transfected using silentFect Lipid reagent (Bio-Rad) according to manufacturer's instructions. Three days after transfection, cells were used for experiments. […]

RhoA = assay: Rho activity pull-down assay; format: cell-based, human; conditions: Ang-2 100 ng/ml
Method: RhoA activity assay was performed and quantified using the RhoA activation assay kit according to the manufacturer's instruction (Cytoskeleton, Denver, Colo.). Lysates from control and Ang-2-treated cells containing equivalent protein concentrations were rotated for 60 minutes with 40 μl slurry of a GST-fusion protein composed of the Rho-binding domain of the specific RhoA effector rhotekin coupled to agarose beads. Beads were collected by centrifugation and washed three times with lysis buffer. Whole cell lysates from both control and Ang-2-treated cells were also run to determine baseline levels of total RhoA protein. Separated proteins were transferred to PVDF and immunoblotted with a monoclonal antibody to RhoA (Santa Cruz Biotechnology, Santa Cruz, Calif.).

healthy adult mice [4] = assay: Lung histology after systemic Ang-2; format: in vivo, mouse; conditions: 3 hour after systemic Ang-2 administration
Text: Lungs were harvested, fixed in 10% formalin, embedded in paraffin, sectioned, and stained with hematoxylin and eosin.

Tie-2 = Tie-2 phosphorylation (immunoprecipitation and Western blot); format: cell-based, human; conditions: HMVECs stimulated with Ang-2 100 ng/ml
Method: 200 μg of total protein were incubated with anti-Tie2 antibody for 3 hours, followed by incubation with protein A sepharose (Zymed, San Francisco, Calif.) for 2 hours at 4° C. After washing the beads, proteins were eluted by heating in SDS-sample buffer and detected by Western blot analysis with Anti-phospho-tyrosine (clone 4G10, Upstate Cell Signaling Solutions) as described before.

With `O=S(=O)(c1cccc2c(I)cccc12)N1CCCNCC1` [ML-7, reference compound] the “reversal of Ang-2 induced thick actin stress fibers and paracellular gaps” value (HMVEC monolayers) was “partially reversed” and the “effect on Ang-2-induced phosphorylation of MLC” value ([1]; Ang-2 100 ng/ml) was “partially inhibited”.

`CC(C)=C[C@H](O)C1=C[C@@H](O)[C@@H]2O[C@@H]2C1=O` [Panepoxydone] was tested, and the “effect on Ang-2 mediated MLC phosphorylation” value ([1]; panepoxydone added to EC monolayers) was “marked inhibition”.

With `C[C@@H](N)[C@H]1CC[C@H](C(=O)Nc2ccncc2)CC1` [Y27632, reference compound] the “reversal of Ang-2 induced thick actin stress fibers and paracellular gaps” value (HMVEC monolayers) was “completely reversed” and the “effect on Ang-2-induced phosphorylation of MLC” value ([1]; Ang-2 100 ng/ml) was “completely abolished”.

B1: Ang-2: Human recombinant angiopoietin-2 purchased from R&D systems; Tie-2 ligand (protein, listed as Homo sapiens)
chain: MWQIVFFTLSCDLVLAAAYNNFRKSMDSIGKKQYQVQHGSCSYTFLLPEMDNCRSSSSPYVSNAVQRDAPLEYDDSVQRLQVLENIMENNTQWLMKLENYIQDNMKKEMVEIQQNAVQNQTAVMIEIGTNLLNQTAEQTRKLTDVEAQVLNQTTRLELQLLEHSLSTNKLEKQILDQTSEINKLQDKNSFLEKKVLAMEDKHIIQLQSIKEEKDQLQVLVSKQNSIIEELEKKIVTATVNNSVLQKQQHDLMETVNNLLTMMSTSNSAKDPTVAKEEQISFRDCAEVFKSGHTTNGIYTLTFPNSTEEIKAYCDMEAGGGGWTIIQRREDGSVDFQRTWKEYKVGFGNPSGEYWLGNEFVSQLTNQQRYVLKIHLKDWEGNEAYSLYEHFYLSSEELNYRIHLKGLTGTAGKISSISQPGNDFSTKDGDNDKCICKCSQMLTGGWWFDACGPSNLNGMYYPQRQNTNKFNGIKWYYWKGSGYSLKATTMMIRPADF
B1 was tested, and the “extravasated Evans blue in intestines versus vehicle” value (healthy adult mice [2]) was “trend toward increased permeability”, the “extravasated Evans blue in livers versus vehicle” value (healthy adult mice [2]) was “twofold increase” and the “extravasated Evans blue in lungs versus vehicle” value (healthy adult mice [2]) was “threefold increase”. The “actin stress fibers and intercellular gaps” value (HMVEC monolayers; recombinant human Ang-2 100 ng/ml alone, HMVECs) was “induced the formation of thick actin stress fibers and intercellular gaps”, the “MLC phosphorylation on stimulation with Ang-2 alone” value ([1]; Ang-2 100 ng/ml, serum-starved HMVECs) was “elevated at 3 hours and 6 hours” and the “lung wet/dry weight (W/D) ratio” value (healthy adult mice [3]) was 6.13±0.03. The “increase in permeability (Pa of FITC-albumin) compared with control” value (HMVEC monolayer) was “approximately 20%”, the “active form of RhoA (Rho-GTP)” value (RhoA) was “increased the active form of RhoA” and the “time of peak Rho-GTP” value (RhoA) was “peaking between 30 minutes and 1 hour”. For the same molecule, the lung histology (healthy adult mice [4]) was “increase in congestion and early extravasation into the interstitium” and the “effect on Tie-2 phosphorylation” value (Tie-2) was “inhibitory effect”.
